In article PMC2947992, “Structure of the Extracellular Portion of CD46 Provides Insights into Its Interactions with Complement Proteins and Pathogens” (PLoS Pathogens, 2010):

B1: human adenovirus type 11 fiber knob (domain or fragment)
chain: LTFNSNNICIDDNINTLWTGVNPTEANCQIMNSSESNDCKLILTLVKTGALVTAFVYVIGVSNNFNMLTTHRNINFTAELFFDSTGNLLTRLSSLKTPLNHKSGQNMATGAITNAKGFMPSTTAYPFNDNSREKENYIYGTCYYTASDRTAFPIDISVMLNRRAINDETSYCIRITWSWNTGDAPEVQTSATTLVTSPFTFYYIREDD
notes: fiber protein of human adenovirus type 11, knob domain, amino acids 118-325; also called Ad11 knob; Ad11 fiber knob

Experiments:
[1] = target: human adenovirus type 11 fiber knob (human adenovirus type 11) (UniProt P35774); test: crystal structure; complex formed from purified proteins at 4°C for 2 hrs with a 1.2 molar excess of CD46-4D, separated from unbound CD46-4D by size exclusion chromatography (20 mM HEPES, 150 mM NaCl, pH 7.4); crystals at 4°C in 20% polyethylene glycol 1000, 0.2 M ammonium phosphate pH 8.0; space group P6_(3), 2.84 Å
[2] = target: the molecule itself; test: as above

Molecule | stoichiometry N (CD46-4D molecules per knob trimer) [1] | stoichiometry N [2] [protomers]
CD46-4D, extracellular segment of human CD46 (membrane cofactor protein) comprising all four SCR domains (domain or fragment) | 3 | 
B1 |  | 3
